The record followed here is patent US20240400708A1.

In experiment [1] the target is feline FcRn complex (FcRn-α subunit and β-microglobulin), biotin labeled (feline). In words: SPR, pH 7.4.
The target is the same in experiment [2]. Description: SPR, pH 6. In general terms: Surface plasmon resonance follows binding to a sensor surface in real time, without labels.

B1: feline IgG1a S252H/S428M/D312P (ID No. 221) (antibody, part only; not given: Variable domains, not shown: another chain or arm of the molecule)
constant: ASTTAPSVFPLAPSCGTTSGATVALACLVLGYFPEPVTVSWNSGALTSGVHTFPAVLQASGLYSLSSMVTVPSSRWLSDTFTCNVAHPPSNTKVDKTVRKTDHPPGPKPCDCPKCPPPEMLGGPSIFIFPPKPKDTLHISRTPEVTCLVVDLGPDDSDVQITWFVDNTQVYTAKTSPREEQFNSTYRVVSVLPILHQPWLKGKEFKCKVNSKSLPSPIERTISKAKGQPHEPQVYVLPPAQEELSRNKVSVTCLIKSFHPPDIAVEWEITGQPEPENNYRTTPPQLDSDGTYFVYSKLSVDRSHWQRGNTYTCSVMHEALHSHHTQKSLTQSPGK
The Kd is the concentration at which binding is half-saturated. A low value points to a tighter complex. In the case of B1, the Kd came to 330 nM in experiment [1] and 8.22 nM in experiment [2].

B2: feline IgG1a S252H/S434F (antibody, part only; not given: Variable domains, not shown: another chain or arm of the molecule)
constant: ASTTAPSVFPLAPSCGTTSGATVALACLVLGYFPEPVTVSWNSGALTSGVHTFPAVLQASGLYSLSSMVTVPSSRWLSDTFTCNVAHPPSNTKVDKTVRKTDHPPGPKPCDCPKCPPPEMLGGPSIFIFPPKPKDTLHISRTPEVTCLVVDLGPDDSDVQITWFVDNTQVYTAKTSPREEQFNSTYRVVSVLPILHQDWLKGKEFKCKVNSKSLPSPIERTISKAKGQPHEPQVYVLPPAQEELSRNKVSVTCLIKSFHPPDIAVEWEITGQPEPENNYRTTPPQLDSDGTYFVYSKLSVDRSHWQRGNTYTCSVSHEALHFHHTQKSLTQSPGK
With B2, the dissociation constant (Kd) in experiment [1] worked out at 24.1 nM; in experiment [2] it was 0.391 nM.

B3: feline IgG1a D312K (antibody, part only; not given: Variable domains, not shown: another chain or arm of the molecule)
constant: ASTTAPSVFPLAPSCGTTSGATVALACLVLGYFPEPVTVSWNSGALTSGVHTFPAVLQASGLYSLSSMVTVPSSRWLSDTFTCNVAHPPSNTKVDKTVRKTDHPPGPKPCDCPKCPPPEMLGGPSIFIFPPKPKDTLSISRTPEVTCLVVDLGPDDSDVQITWFVDNTQVYTAKTSPREEQFNSTYRVVSVLPILHQKWLKGKEFKCKVNSKSLPSPIERTISKAKGQPHEPQVYVLPPAQEELSRNKVSVTCLIKSFHPPDIAVEWEITGQPEPENNYRTTPPQLDSDGTYFVYSKLSVDRSHWQRGNTYTCSVSHEALHSHHTQKSLTQSPGK
B3: the Kd came to 56.1 nM in experiment [1] and 5.86 nM in experiment [2].

B4: feline IgG1a S252H/S428M/S434F (antibody, part only; not given: Variable domains, not shown: another chain or arm of the molecule)
constant: ASTTAPSVFPLAPSCGTTSGATVALACLVLGYFPEPVTVSWNSGALTSGVHTFPAVLQASGLYSLSSMVTVPSSRWLSDTFTCNVAHPPSNTKVDKTVRKTDHPPGPKPCDCPKCPPPEMLGGPSIFIFPPKPKDTLHISRTPEVTCLVVDLGPDDSDVQITWFVDNTQVYTAKTSPREEQFNSTYRVVSVLPILHQDWLKGKEFKCKVNSKSLPSPIERTISKAKGQPHEPQVYVLPPAQEELSRNKVSVTCLIKSFHPPDIAVEWEITGQPEPENNYRTTPPQLDSDGTYFVYSKLSVDRSHWQRGNTYTCSVMHEALHFHHTQKSLTQSPGK
Regarding B4, the values for the Kd in experiment [1] and in experiment [2] were 26.9 nM and 0.121 nM, respectively.

B5: feline IgG1a S252H/S428M/S434P (antibody, part only; not given: Variable domains, not shown: another chain or arm of the molecule)
constant: ASTTAPSVFPLAPSCGTTSGATVALACLVLGYFPEPVTVSWNSGALTSGVHTFPAVLQASGLYSLSSMVTVPSSRWLSDTFTCNVAHPPSNTKVDKTVRKTDHPPGPKPCDCPKCPPPEMLGGPSIFIFPPKPKDTLHISRTPEVTCLVVDLGPDDSDVQITWFVDNTQVYTAKTSPREEQFNSTYRVVSVLPILHQDWLKGKEFKCKVNSKSLPSPIERTISKAKGQPHEPQVYVLPPAQEELSRNKVSVTCLIKSFHPPDIAVEWEITGQPEPENNYRTTPPQLDSDGTYFVYSKLSVDRSHWQRGNTYTCSVMHEALHPHHTQKSLTQSPGK
For the molecule B5, the Kd in experiment [1] came out at 55.6 nM; in experiment [2], 7.45 nM.

B6: feline IgG1a S252H/S434L (antibody, part only; not given: Variable domains, not shown: another chain or arm of the molecule)
constant: ASTTAPSVFPLAPSCGTTSGATVALACLVLGYFPEPVTVSWNSGALTSGVHTFPAVLQASGLYSLSSMVTVPSSRWLSDTFTCNVAHPPSNTKVDKTVRKTDHPPGPKPCDCPKCPPPEMLGGPSIFIFPPKPKDTLHISRTPEVTCLVVDLGPDDSDVQITWFVDNTQVYTAKTSPREEQFNSTYRVVSVLPILHQDWLKGKEFKCKVNSKSLPSPIERTISKAKGQPHEPQVYVLPPAQEELSRNKVSVTCLIKSFHPPDIAVEWEITGQPEPENNYRTTPPQLDSDGTYFVYSKLSVDRSHWQRGNTYTCSVSHEALHLHHTQKSLTQSPGK
Turning to B6, the dissociation constant (Kd) in experiment [1] turned out to be 3.79 nM; in experiment [2], 6.08 nM.

B7: feline IgG1a S252H/S428M/S434L (antibody, part only; not given: Variable domains, not shown: another chain or arm of the molecule)
constant: ASTTAPSVFPLAPSCGTTSGATVALACLVLGYFPEPVTVSWNSGALTSGVHTFPAVLQASGLYSLSSMVTVPSSRWLSDTFTCNVAHPPSNTKVDKTVRKTDHPPGPKPCDCPKCPPPEMLGGPSIFIFPPKPKDTLHISRTPEVTCLVVDLGPDDSDVQITWFVDNTQVYTAKTSPREEQFNSTYRVVSVLPILHQDWLKGKEFKCKVNSKSLPSPIERTISKAKGQPHEPQVYVLPPAQEELSRNKVSVTCLIKSFHPPDIAVEWEITGQPEPENNYRTTPPQLDSDGTYFVYSKLSVDRSHWQRGNTYTCSVMHEALHLHHTQKSLTQSPGK
As for B7, the Kd came out at 3.55 nM in experiment [1] and 8.59 nM in experiment [2].

B8: feline IgG1a S252H/S428M/S434Y (antibody, part only; not given: Variable domains, not shown: another chain or arm of the molecule)
constant: ASTTAPSVFPLAPSCGTTSGATVALACLVLGYFPEPVTVSWNSGALTSGVHTFPAVLQASGLYSLSSMVTVPSSRWLSDTFTCNVAHPPSNTKVDKTVRKTDHPPGPKPCDCPKCPPPEMLGGPSIFIFPPKPKDTLHISRTPEVTCLVVDLGPDDSDVQITWFVDNTQVYTAKTSPREEQFNSTYRVVSVLPILHQDWLKGKEFKCKVNSKSLPSPIERTISKAKGQPHEPQVYVLPPAQEELSRNKVSVTCLIKSFHPPDIAVEWEITGQPEPENNYRTTPPQLDSDGTYFVYSKLSVDRSHWQRGNTYTCSVMHEALHYHHTQKSLTQSPGK
Regarding B8, the Kd came out at 20.7 nM in experiment [1] and 0.138 nM in experiment [2].

B9: feline IgG1a S252H/S428M/S434W (antibody, part only; not given: Variable domains, not shown: another chain or arm of the molecule)
constant: ASTTAPSVFPLAPSCGTTSGATVALACLVLGYFPEPVTVSWNSGALTSGVHTFPAVLQASGLYSLSSMVTVPSSRWLSDTFTCNVAHPPSNTKVDKTVRKTDHPPGPKPCDCPKCPPPEMLGGPSIFIFPPKPKDTLHISRTPEVTCLVVDLGPDDSDVQITWFVDNTQVYTAKTSPREEQFNSTYRVVSVLPILHQDWLKGKEFKCKVNSKSLPSPIERTISKAKGQPHEPQVYVLPPAQEELSRNKVSVTCLIKSFHPPDIAVEWEITGQPEPENNYRTTPPQLDSDGTYFVYSKLSVDRSHWQRGNTYTCSVMHEALHWHHTQKSLTQSPGK
As for B9, the Kd in experiment [1] was found to be 20.8 nM; in experiment [2], 0.135 nM.

B10: feline IgG1a S252H/S428M/Q311Y (antibody, part only; not given: Variable domains, not shown: another chain or arm of the molecule)
constant: ASTTAPSVFPLAPSCGTTSGATVALACLVLGYFPEPVTVSWNSGALTSGVHTFPAVLQASGLYSLSSMVTVPSSRWLSDTFTCNVAHPPSNTKVDKTVRKTDHPPGPKPCDCPKCPPPEMLGGPSIFIFPPKPKDTLHISRTPEVTCLVVDLGPDDSDVQITWFVDNTQVYTAKTSPREEQFNSTYRVVSVLPILHYDWLKGKEFKCKVNSKSLPSPIERTISKAKGQPHEPQVYVLPPAQEELSRNKVSVTCLIKSFHPPDIAVEWEITGQPEPENNYRTTPPQLDSDGTYFVYSKLSVDRSHWQRGNTYTCSVMHEALHSHHTQKSLTQSPGK
Consider B10, for which the results for the dissociation constant (Kd) in experiment [1] and in experiment [2] were 141 nM and 5.73 nM, respectively.

B11: feline IgG1a S252H/S428M/Q311W (antibody, part only; not given: Variable domains, not shown: another chain or arm of the molecule)
constant: ASTTAPSVFPLAPSCGTTSGATVALACLVLGYFPEPVTVSWNSGALTSGVHTFPAVLQASGLYSLSSMVTVPSSRWLSDTFTCNVAHPPSNTKVDKTVRKTDHPPGPKPCDCPKCPPPEMLGGPSIFIFPPKPKDTLHISRTPEVTCLVVDLGPDDSDVQITWFVDNTQVYTAKTSPREEQFNSTYRVVSVLPILHWDWLKGKEFKCKVNSKSLPSPIERTISKAKGQPHEPQVYVLPPAQEELSRNKVSVTCLIKSFHPPDIAVEWEITGQPEPENNYRTTPPQLDSDGTYFVYSKLSVDRSHWQRGNTYTCSVMHEALHSHHTQKSLTQSPGK
In the case of B11, the Kd in experiment [1] amounted to 54.6 nM; in experiment [2] it was 3.14 nM.
